Patent US7888090B2, “Mutants of O6-alkylguanine-DNA alkyltransferase” (Ecole Polytechnique Federale de Lausanne, priority 2004, dated 2011)

Columns and labels:
[1] = Expression yield of soluble GST-AGT fusion protein; design: species or system E. coli; conditions: comparator not stated
Description: Expression yield is measured in E. coli or in any other of the standard production cells for genetically modified proteins, e.g. yeast, or preferably insect cells, CHO cells or HeLa cells. For quantifying expression yield, AGT fusion proteins may be chosen such that the fusion partner allows easy purification and quantification. For example, expression yield in E. coli is determined by measuring and comparing the yield of soluble and insoluble GST-wild type AGT fusion protein and GST-mutant AGT fusion protein from parallel E. coli expression cultures. Samples of the soluble fractions and insoluble fractions (i.e. the inclusion bodies) after cell lysis are subjected to SDS-PAGE, and the band staining intensities of the corresponding AGT fusion proteins are compared. Soluble protein is quantified after purification of the fusion protein from cell extracts by affinity chromatography (e.g. for GST-AGT fusion proteins by glutathione sepharose) by subjecting the purified fractions to a protein concentration assay (Bradford, Anal Biochem 72:248-54, 1976). The expression yield of similar proteins in the soluble fraction (difference in point mutations) can be used as a measure for protein stability in the unpurified as well as the purified state (Ohage et al., J Mol Biol 291:1119-1128, 1999; Wirtz et al., Protein Sci 8: 2245-50, 1999). Therefore, this is taken as a measure of folding stability and aggregation tendency.
Protein expression from this vector is carried out in E. coli strain BL21. An exponentially growing culture is induced with 0.5 mM IPTG, and the expression is carried out for 3.5 h at 24° C.
Purification: The harvested cells are resuspended in a buffer containing 50 mM phosphate, 0.5 M NaCl, 1 mM DTT, supplemented with 1 mM PMSF and 2 μg/ml aprotinin, and disrupted by lysozyme and sonification. The cell debris are separated by centrifugation at 40000×g. The extract is applied to pre-equilibrated glutathione sepharose (Amersham) which is then washed with 20 bed volumes (50 mM phosphate, 0.5 M NaCl, 1 mM DTT). The mutated GST-AGT fusion protein is eluted with 10 mM reduced glutathione in 50 mM Tris·HCl pH 7.9. The purified protein is dialyzed against 50 mM HEPES pH 7.2; 1 mM DTT; 30% glycerol and then stored at −80° C.
Determination of protein yield: Purity and relative amounts of the GST-AGT fusion proteins are compared by running samples on SDS-PAGE. UV spectra of the pure fractions are recorded using a Perkin Elmer Lambda 10. For protein samples containing no significant amount of DNA, the extinction at 280 nm as a measure of protein content is compared to that of wild type hAGT or PGEG-hAGT that were purified under the same conditions.

[2] = Periplasmic expression / stability under oxidizing conditions; design: species or system E. coli
Description: The activities towards AGT substrates are measured after purification without addition of reducing agents such as dithiothreitol or beta-mercaptoethanol. Alternatively, the activities of mutant AGT and wild type human are compared after their export into cellular compartments with oxidising redox potential (e.g. the periplasm of E. coli due to their fusion to appropriate signal sequences. Activity towards AGT substrates under reducing and oxidising conditions is compared by performing the reactions in the presence or absence of reducing agents such as dithiothreitol or beta-mercaptoethanol.
The mutant AGT gene of Example 1 is amplified and cloned as described in Example 1 with the oligonucleotides SEQ ID NO:3, SEQ ID NO:10 and SEQ ID NO:4, SEQ ID NO:9 causing the further mutation Cys62Ala in the gene upon their incorporation by PCR. Protein expression, purification and determination of yield is carried out as described in Example 1. The mutant gene is PCR amplified with the primers SEQ ID NO:11, SEQ ID NO:12 that contain SfiI restriction sites to subclone the gene in fusion to the g3 protein of filamentous phage in the vector pAK100 (Krebber et al., J Immunol Methods 201:35-55, 1997). […] The supernatant is directly subjected to quantification of protein yield via SDS-PAGE and activity assays as described in Example 1.
Stability under oxidizing conditions: The mutant gene is PCR amplified with the primers SEQ ID NO:11 and SEQ ID NO:28 to subclone the gene into pAK100, as described in Example 2. […] To compare the reactivity of […] (Juillerat et al., Chem Biol 10:313-317, 2003) and the mutant, samples are incubated with 1 µM BG-Bt for 50 min, quenched with SDS-Laemmli buffer and analyzed by western blotting using neutravidin peroxidase conjugate (Pierce) or a monoclonal mouse anti-FLAG IgG antibody (M2, Sigma) and a secondary anti-mouse-IgG::HRP conjugate, and Renaissance reagent plus (NEN). […] The anti-FLAG IgG antibody is used to estimate the total amount of soluble AGT protein, whereas neutravidin quantifies the reactive portion of it. […]

[3] = Competition of N^9-substituted and N^9-unsubstituted O^6-benzylguanine substrates; format: biochemical; conditions: comparator not stated
Description: Such N^9-substituted O^6-alkylguanine substrates are the natural substrates of the wild type AGT. The ability of wild type AGT or mutant AGT to react with N^9-modified O^6-alkylguanine substrates is measured as the rate of its reaction with such substrates, e.g. with the low molecular weight N^9-cyclopentyl-O^6-benzylguanine in presence of biotinylated N^9-unsubstituted O^6-alkylguanine substrates in competition experiments. Subsequently, samples are subjected to Western blotting and detection with streptavidin derivates to obtain kinetic constants for these substrates. Alternatively, the reactivity towards such substrates is measured as the inhibition of the reaction of AGT with BG-Cy3. The reaction of AGT with BG-Cy3 is followed by an increase of Cy3 fluorescence intensity upon binding to AGT, after preincubation or in direct competition with the N^9-modified O^6-alkylguanine substrate.
Selected AGT mutants are subcloned into pGEX2T, expressed, purified and characterized as described in Example 1. Discrimination between N^9 substituted and N^9 unsubstituted O^6-benzylguanine substrates is evaluated by competition experiments for purified mutated GST-AGT in vitro with N^9-substituted and N′-unsubstituted O^6-benzylguanine. Aliquots of 0.2 μM GST-AGT are incubated with varying concentrations of N^9 substituted substrate (0, 0.5, up to 100 µM) and 0.5 µM biotinylated O^6-benzylguanine (BG-Bt, substance 3a of Juillerat et al., Chem Biol 10:313-317, 2003) in 50 mM HEPES pH 7.3 and 1 mM DTT at room temperature. After 45 min reactions are quenched by the addition of SDS-Laemmli buffer and heat denaturation. Samples are subjected to SDS-PAGE and Western blotting analysis (neutravidin-peroxidase conjugate (PIERCE), Renaissance reagent plus (NEN)). The intensity of the corresponding bands is quantified by a Kodak Image Station 440.

[4] = Activity assay with biotinylated O^6-benzylguanine (BG-Bt), Western blotting; format: biochemical; conditions: statement in words
Description: Activity towards O^6-benzylguanine substrates is measured as described by Juillerat et al., Chem Biol 10:313-317, 2003.
Activity assay: Purified mutated GST-AGT is incubated in vitro with a biotinylated O^6-benzylguanine (BG-Bt, substance 3a of Juillerat et al., Chem Biol 10:313-317, 2003). In a total reaction volume of 80 […]I, 0.2 µM GST-AGT are incubated with 1 µM substrate in 50 mM HEPES pH 7.2 and 1 mM DTT at room temperature. At several points of time an aliquot is quenched with 1 mM O^6-benzylguanine (Sigma) in SDS-Laemmli buffer and subjected to Western blotting analysis (neutravidin-peroxidase conjugate (PIERCE), Renaissance reagent plus (NEN)). The intensity of the corresponding bands is quantified by a Kodak Image Station 440.

B1: Cys62Ala, Gln115Ser, Gln116His, Lys125Ala, Ala127Thr, Arg128Ala, Cys150Asn, Ser151Ile, Ser152Asn, Asn157Gly, Ser159Glu, truncated after Gly182: particularly preferred hAGT mutant with the listed … (protein, UniProt P16455 1-207, looked up, variant C62A Q115S Q116H K125A A127T R128A C150N S151I S152N N157G S159E del183-207)
Methylated-DNA--protein-cystei …: MDKDCEMKRTTLDSPLGKLELSGCEQGLHEIKLLGKGTSAADAVEVPAPAAVLGGPEPLMQATAWLNAYFHQPEAIEEFPVPALHHPVFQQESFTRQVLWKLLKVVKFGEVISYSHLAALAGNPAATAAVGGAMRGNPVPILIPCHRVVNINGAVGGYEGGLAVKEWLLAHEGHRLGKPGLG
In the case of B1, the “expression yield in E. coli” value [1] is reported as “increased expression yield”, the sensitivity to oxidation [2] is reported as “reduced sensitivity to oxidation” and the “reduced reactivity towards O^6-alkyl-N^9-deoxyribosylguanine or N^9-cyclopentyl-O^6-benzylguanine” value [3] is reported as “retain reactivity”. The “activity towards O^6-benzylguanine substrates” value [4] was “increased reactivity”.
